Data reported in the Human Domainome abundance scans (Beltran et al. 2025).
± gives the uncertainty stated by the source.

B1: Formin-binding protein 4, residues 200 to 261; numbered along this chain, Q8N3X1 (parent)
chain: SGWQYDTQCSLAGVGIEMGDWQEVWDENTGCYYYWNTQTNEVTWELPQYLATQVQGLQHYQP

Variants of: B1
Assay: abundance fitness (aPCA) (normalised: wild type 0, dead -1); higher = more abundant; growth selection in yeast, the domain comes from the species named
Settings: Homo sapiens

Row | Variant | abundance fitness
1 | SGWQYDTQCSLAGVGIEMGDWQEVWDENTGCYYYWNTQTNEVTWELPQYAATQVQGLQHYQP | -0.822 ± 0.12
2 | SGWQYDTQCSLAGVGIEMGDWQEVWDENTGCYYYWNTQTNEVTWELPQYDATQVQGLQHYQP | -1.04 ± 0.26
3 | SGWQYDTQCSLAGVGIEMGDWQEVWDENTGCYYYWNTQTNEVTWELPQYCATQVQGLQHYQP | -0.45 ± 0.11
4 | SGWQYDTQCSLAGVGIEMGDWQEVWDENTGCYYYWNTQTNEVTWELPGYLATQVQGLQHYQP | -0.007 ± 0.059
5 | SGWQYDTQCSLAGVGIEMGDWQEVWDENTGCYYYWNTQTNEVTWELPNYLATQVQGLQHYQP | -0.059 ± 0.17
6 | SGWQYDTQCSLAGVGIEMGDWQEVWDENTGCYYYWNTQTNEVTWELPWYLATQVQGLQHYQP | -0.417 ± 0.093
7 | SGWQYDTQCSLAGVGIEMGDWQEVWDENTGCYYYWNTQTNEVTWELPHYLATQVQGLQHYQP | -0.133 ± 0.15
8 | SGWQYDTQCSLAGVGIEMGDWQEVWDENTGCYYYWNTQTNEVTWELPKYLATQVQGLQHYQP | 0.129 ± 0.1
9 | SGWQYDTQCSLAGVGIEMGDWQEVWDENTGCYYYWNTQTNEVTWELPTYLATQVQGLQHYQP | 0.053 ± 0.09
10 | SGWQYDTQCSLAGVGIEMGDWQEVWDENTGCYYYWNTQTNEVTWELPMYLATQVQGLQHYQP | 0.085 ± 0.091
11 | SGWQYDTQCSLAGVGIEMGDWQEVWDENTGCYYYWNTQTNEVTWELPVYLATQVQGLQHYQP | -0.127 ± 0.072
12 | SGWQYDTQCSLAGVGIEMGDWQEVWDENTGCYYYWNTQTNEVTWELPSYLATQVQGLQHYQP | -0.038 ± 0.068
13 | SGWQYDTQCSLAGVGIEMGDWQEVWDENTGCYYYWNTQTNEVTWELPPYLATQVQGLQHYQP | 0.319 ± 0.079
14 | SGWQYDTQCSLAGVGIEMGDWQEVWDENTGCYYYWNTQTNEVTWELPRYLATQVQGLQHYQP | -0.061 ± 0.063
15 | SGWQYDTQCSLAGVGIEMGDWQEVWDENTGCYYYWNTQTNEVTWELPDYLATQVQGLQHYQP | 0.02 ± 0.16
16 | SGWQYDTQCSLAGVGIEMGDWQEVWDENTGCYYYWNTQTNEVTWELPIYLATQVQGLQHYQP | -0.262 ± 0.15
17 | SGWQYDTQCSLAGVGIEMGDWQEVWDENTGCYYYWNTQTNEVTWELPCYLATQVQGLQHYQP | -0.147 ± 0.092
18 | SGWQYDTQCSLAGVGIEMGDWQEVWDENTGCYYYWNTQTNEVTWELPFYLATQVQGLQHYQP | -0.293 ± 0.16
19 | SGWQYDTQCSLAGVGIEMGDWQEVWDENTGCYYYWNTQTNEVTWELPLYLATQVQGLQHYQP | 0.043 ± 0.062
20 | SGWQYDTQCSLAGVGIEMGDWQEVWDENTGCYYYWNTQTNEVTWELPYYLATQVQGLQHYQP | 0.23 ± 0.13
21 | SGWQYDTQCSLAGVGIEMGDWQEVWDENTGCYYYWNTQTNEVTWELPAYLATQVQGLQHYQP | -0.039 ± 0.082
22 | SGWQYDTQCSLAGVGIEMGDWQEVWDENTGCYYYWNTQTNEVTWELPEYLATQVQGLQHYQP | -0.024 ± 0.11

Row | Variant | abundance fitness
23 | SGWQYDTQCSLAGVGIEMGDWQEVWDENTGCYYYWNTQTNEVTWELCQYLATQVQGLQHYQP | -1.22 ± 0.32
24 | SGWQYDTQCSLAGVGIEMGDWQEVWDENTGCYYYWNTQTNEVTWELRQYLATQVQGLQHYQP | -0.895 ± 0.11
25 | SGWQYDTQCSLAGVGIEMGDWQEVWDENTGCYYYWNTQTNEVTWELGQYLATQVQGLQHYQP | -1.04 ± 0.15
26 | SGWQYDTQCSLAGVGIEMGDWQEVWDENTGCYYYWNTQTNEVTWELVQYLATQVQGLQHYQP | -0.583 ± 0.11
27 | SGWQYDTQCSLAGVGIEMGDWQEVWDENTGCYYYWNTQTNEVTWELFQYLATQVQGLQHYQP | -1.1 ± 0.24
28 | SGWQYDTQCSLAGVGIEMGDWQEVWDENTGCYYYWNTQTNEVTWELYQYLATQVQGLQHYQP | -1.11 ± 0.27
29 | SGWQYDTQCSLAGVGIEMGDWQEVWDENTGCYYYWNTQTNEVTWELTQYLATQVQGLQHYQP | -1.01 ± 0.19
30 | SGWQYDTQCSLAGVGIEMGDWQEVWDENTGCYYYWNTQTNEVTWELQQYLATQVQGLQHYQP | -1.23 ± 0.33
31 | SGWQYDTQCSLAGVGIEMGDWQEVWDENTGCYYYWNTQTNEVTWELSQYLATQVQGLQHYQP | -0.95 ± 0.13
32 | SGWQYDTQCSLAGVGIEMGDWQEVWDENTGCYYYWNTQTNEVTWELMQYLATQVQGLQHYQP | -0.721 ± 0.13
33 | SGWQYDTQCSLAGVGIEMGDWQEVWDENTGCYYYWNTQTNEVTWELEQYLATQVQGLQHYQP | -0.985 ± 0.22
34 | SGWQYDTQCSLAGVGIEMGDWQEVWDENTGCYYYWNTQTNEVTWELIQYLATQVQGLQHYQP | -1.02 ± 0.23
35 | SGWQYDTQCSLAGVGIEMGDWQEVWDENTGCYYYWNTQTNEVTWELDQYLATQVQGLQHYQP | -1.17 ± 0.28
36 | SGWQYDTQCSLAGVGIEMGDWQEVWDENTGCYYYWNTQTNEVTWELWQYLATQVQGLQHYQP | -1.12 ± 0.2
37 | SGWQYDTQCSLAGVGIEMGDWQEVWDENTGCYYYWNTQTNEVTWELAQYLATQVQGLQHYQP | -0.842 ± 0.15
38 | SGWQYDTQCSLAGVGIEMGDWQEVWDENTGCYYYWNTQTNEVTWELHQYLATQVQGLQHYQP | -1 ± 0.29
39 | SGWQYDTQCSLAGVGIEMGDWQEVWDENTGCYYYWNTQTNEVTWELKQYLATQVQGLQHYQP | -0.274 ± 0.17
40 | SGWQYDTQCSLAGVGIEMGDWQEVWDENTGCYYYWNTQTNEVTWEIPQYLATQVQGLQHYQP | -0.245 ± 0.15
41 | SGWQYDTQCSLAGVGIEMGDWQEVWDENTGCYYYWNTQTNEVTWEGPQYLATQVQGLQHYQP | -0.787 ± 0.11
42 | SGWQYDTQCSLAGVGIEMGDWQEVWDENTGCYYYWNTQTNEVTWENPQYLATQVQGLQHYQP | -0.625 ± 0.4
43 | SGWQYDTQCSLAGVGIEMGDWQEVWDENTGCYYYWNTQTNEVTWEKPQYLATQVQGLQHYQP | -0.631 ± 0.12
